The text below walks through data of US9506077B2, “Synthetic chloroplast transit peptides” (DOW AGROSCIENCES LLC, priority 2012, dated 2016).

In one assay the test system is T1 Arabidopsis. The assay can be described thus: T1 Arabidopsis response to glyphosate applied postemergence (Tables 5-7). Type of assay: in vivo, Arabidopsis thaliana. An excerpt:
Transgenic T1 Arabidopsis plants containing the dgt-28 transgene were sprayed with differing rates of glyphosate. Elevated rates were applied in this study to determine the relative levels of resistance (105, 420, 1,680 or 3,360 g ae/ha). A typical 1× usage rate of glyphosate that will control non-transformed Arabidopsis is 420 g ae/ha. […] The T1 Arabidopsis plants that were used in this study were variable copy number for the dgt-28 transgene. The low copy dgt-28 T1 Arabidopsis plants were self-pollinated and used to produce T2 plants.
The Arabidopsis T1 transformants were first selected from the background of untransformed seed using a glufosinate selection scheme. Three flats or 30,000 seed were analyzed for each T1 construct. The T1 plants selected above were molecularly characterized and representative plants with variable copy number were subsequently transplanted to individual pots and sprayed with various rates of commercial glyphosate as previously described. The response of these plants is presented in terms of % visual injury 2 weeks after treatment (WAT). […] An arithmetic mean and standard deviation is presented for each construct used for Arabidopsis transformation. The range in individual response is also indicated in the last column for each rate and transformation. Wild-type, non-transformed Arabidopsis (c.v. Columbia) served as a glyphosate sensitive control.

Assay [1] deals with chloroplasts of the maize protoplast. The assay can be described thus: Maize protoplast transient assay, GFP microscopy. The settings on record: TraP23-GFP, maize protoplasts, 12 hours incubation. It is filed as cell-based, Zea mays var. B104. An excerpt:
The Trap23 v2 synthetic chloroplast transit peptide-encoding polynucleotide sequence (SEQ ID NO:12) was cloned upstream of the green fluorescent protein gene and incorporated into the pDAB106598 construct (FIG. 5) for testing via the maize protoplast transient in planta assay. The resulting construct contained the following plant transcription unit (PTU). The first PTU was comprised of the Zea mays Ubiquitin 1 promoter (ZmUbi1 promoter; Christensen, A., Sharrock R., and Quail P., (1992) Maize polyubiquitin genes: structure, thermal perturbation of expression and transcript splicing, and promoter activity following transfer to protoplasts by electroporation, Plant Molecular Biology, 18:675-689), TraP-green fluorescent protein fusion gene (TraP23-GFP; U.S. Pat. No. 7,678,893), and Zea mays Peroxidase 5 3′ untranslated region (ZmPer5 3′UTR; U.S. Pat. No. 6,384,207). The construct was confirmed via restriction enzyme digestion and sequencing.
Seed of Zea mays var. B104 were surface sterilized by shaking vigorously in 50% Clorox (3% sodium hypochlorite), containing 2-3 drops of Tween 20, for about 20 minutes. […]
Transfection of 100 to 500 μl of protoplasts (1-5×10^5) was completed by adding the protoplasts to a 2 ml microfuge tube containing about 40 μg of plasmid DNA (pDAB106598), at room temperature. […] Fluorescence of GFP was viewed by microscopy after 12 hours of incubation. […]

In assay [2] the test system is chloroplasts of the tobacco cells. The assay can be described thus: Tobacco transient assay, confocal microscopy of TraP-GFP. It is filed as cell-based, Nicotiana benthamiana. The settings on record: TraP23-GFP, infiltrated tobacco leaf. From the text:
The Trap23 synthetic chloroplast transit peptide sequence were initially tested via a transient in planta assay. A polynucleotide sequence which encodes the Trap23v2 (SEQ ID NO:12) synthetic chloroplast transit peptide sequences was synthesized. The resulting construct contained two plant transcription units (PTU). The first PTU was comprised of the Arabidopsis thaliana Ubiquitin 10 promoter (AtUbi10 promoter; Callis, et al., (1990) J. Biol. Chem., 265: 12486-12493), TraP-green fluorescent protein fusion gene (TraP-GFP; U.S. Pat. No. 7,678,893), and Agrobacterium tumefaciens ORF 23 3′ untranslated region (AtuORF23 3′UTR; U.S. Pat. No. 5,428,147). […]
Agrobacterium-infiltrated tobacco leaves were severed from the plant, and placed into a petri-dish with water to prevent dehydration. The infiltrated tobacco leaves were observed under blue light excitation with long-pass filter glasses held in place using a Dark Reader Hand Lamp™ (Clare Chemical Research Co.; Dolores, Colo.) to identify undamaged areas of the leaf that were successfully expressing the GFP reporter proteins. […]

For another assay, the system named is T1 tobacco. The assay can be described thus: Postemergence glyphosate tolerance of dgt-28 T1 tobacco (Table 25). Type of assay: in vivo, Tobacco (cv. Petit Havana). The settings on record: 2240 g ae/ha glyphosate, 14 DAT. An excerpt:
T1 resistant plants from each event used in the progeny testing were given unique identifiers and sampled for zygosity analyses of the dgt-28 gene. Zygosity data were used to assign 2 hemizygous and 2 homozygous replicates to each rate of glyphosate applied allowing for a total of 4 replicates per treatment. These plants were compared against wildtype Petite havana tobacco. All plants were sprayed with a track sprayer set at 187 L/ha. The plants were sprayed from a range of 560-4480 g ae/ha DURANGO DMA™. All applications were formulated in water with the addition of 2% w/v ammonium sulfate (AMS). Plants were evaluated at 7 and 14 days after treatment. Plants were assigned an injury rating with respect to overall visual stunting, chlorosis, and necrosis. The T1 generation is segregating, so some variable response is expected due to difference in zygosity.

Assay [3] relates to infiltrated tobacco cells. The assay can be described thus: Tobacco transient assay, anti-GFP Western blot. Particulars: infiltrated tobacco leaf; band size vs GFP control. It is filed as cell-based, Nicotiana benthamiana. As for the experimental part:
Samples of the infiltrated tobacco plants were assayed via Western blotting. Leaf punches were collected and subjected to bead-milling. About 100-200 mg of leaf material was mixed with 2 BBs (steel balls; Daisy; Rogers, Ark.) and […] of PBST for 3 minutes in a Kleco™ bead mill. The samples were then spun down in a centrifuge at 14,000×g at 4° C. The supernatant was removed and either analyzed directly via Western blot or immunoprecipitated. The immunoprecipitations were performed using the Pierce Direct IP Kit™ (Thermo Scientific; Rockford, Ill.) following the manufacturer's protocol. Approximately, 50 μg of anti-GFP was bound to the resin. The samples were incubated with the resin overnight at 4° C. Next, the samples were washed and eluted the following morning and prepped for analysis by combining equal volumes of 2×8M Urea sample buffer and then boiling the samples for 5 minutes. The boiled samples were run on a 4-12% SDS-Bis Tris gel in MOPS buffer for 40 minutes. The gel was then blotted using the Invitrogen iBlot™ (Life Technologies; Carlsbad, Calif.) following the manufacturer's protocol. The blotted membrane was blocked for 10 minutes using 5% non-fat dry milk in PBS-Tween solution. The membrane was probed with the primary antibody (monoclonal anti-GFP in rabbit) used at a 1:1000 dilution in the 5% non-fat dry milk in PBS-Tween solution for 1 hour. […]

As for `O=C(O)CNCP(=O)(O)O` [glyphosate], the “typical 1x usage rate of glyphosate that will control non-transformed Arabidopsis” value with T1 Arabidopsis stood at 420 g ae/ha.

B1: TraP23: synthetic chloroplast transit peptide, SEQ ID NO:11; encoded by SEQ ID NO:12; tested fused to GFP, dgt-28, dgt-31, cry2Aa (protein)
chain: MAQINKSANGVRNASLISNFSNTRQAKSPFSLSCGTRLKNSSRGLKKVAVRLIGSRVKVSAS
modifications: TraP23 synthetic chloroplast transit peptide
notes: tested fused to GFP, dgt-28, dgt-31, cry2Aa
Take B1: the “accumulation of GFP within the chloroplasts (microscopy imaging)” value in assay [1] is listed as “accumulated within the chloroplasts”. In addition, the “accumulation of GFP protein within the chloroplasts (microscopy imaging)” value in assay [2] is “did not accumulate detectable amounts of GFP protein within the chloroplasts”. For the same molecule, the “% Injury Ave” value in the assay with T1 tobacco came to 9.5%. Further, the “processing and cleavage of transit peptide from GFP (Western blot)” value in assay [3] is “processed”.

B2: TraP8: chloroplast transit peptide, encoding sequence SEQ ID NO:26, fused to dgt-28 (protein)
chain: MAQSSRICHGVQNPCVIISNLSKSNQNKSPFSVSLKTHQQQRRAYQISSWGLKKSNNGSVIRPVKA
modifications: Chloroplast Transit Peptide
Consider B2, for which the “% Injury Ave” value in the assay on T1 tobacco amounted to 9.3%.

B3: TraP4: chloroplast transit peptide, encoding sequence SEQ ID NO:24, fused to dgt-28 (protein)
chain: MLARQGGSLRASQCNAGLARRVEVGALVVPRPISVNDVVPHVYSAPLSVARRSCSKSSIRSTRRLQTTVCS
modifications: Chloroplast Transit Peptide
As for B3, the “% Injury Ave” value in the assay with T1 tobacco is listed as “of 37.5% was demonstrated with the event containing TraP4,”.
